In PMC11853559, “α-Synuclein Iron-Responsive-Element RNA and Iron Regulatory Protein Affinity Is Specifically Reduced by Iron in Parkinson’s Disease” one finds Kd and Ka data, which are given here for one molecule.

Holding throughout (details): protein: commercial; hairpin (stem-loop), melted and reannealed
Data set [1] addresses T1, Iron regulatory protein 1 (IRP1) (UniProt P21399 1-889).
T1 sequence: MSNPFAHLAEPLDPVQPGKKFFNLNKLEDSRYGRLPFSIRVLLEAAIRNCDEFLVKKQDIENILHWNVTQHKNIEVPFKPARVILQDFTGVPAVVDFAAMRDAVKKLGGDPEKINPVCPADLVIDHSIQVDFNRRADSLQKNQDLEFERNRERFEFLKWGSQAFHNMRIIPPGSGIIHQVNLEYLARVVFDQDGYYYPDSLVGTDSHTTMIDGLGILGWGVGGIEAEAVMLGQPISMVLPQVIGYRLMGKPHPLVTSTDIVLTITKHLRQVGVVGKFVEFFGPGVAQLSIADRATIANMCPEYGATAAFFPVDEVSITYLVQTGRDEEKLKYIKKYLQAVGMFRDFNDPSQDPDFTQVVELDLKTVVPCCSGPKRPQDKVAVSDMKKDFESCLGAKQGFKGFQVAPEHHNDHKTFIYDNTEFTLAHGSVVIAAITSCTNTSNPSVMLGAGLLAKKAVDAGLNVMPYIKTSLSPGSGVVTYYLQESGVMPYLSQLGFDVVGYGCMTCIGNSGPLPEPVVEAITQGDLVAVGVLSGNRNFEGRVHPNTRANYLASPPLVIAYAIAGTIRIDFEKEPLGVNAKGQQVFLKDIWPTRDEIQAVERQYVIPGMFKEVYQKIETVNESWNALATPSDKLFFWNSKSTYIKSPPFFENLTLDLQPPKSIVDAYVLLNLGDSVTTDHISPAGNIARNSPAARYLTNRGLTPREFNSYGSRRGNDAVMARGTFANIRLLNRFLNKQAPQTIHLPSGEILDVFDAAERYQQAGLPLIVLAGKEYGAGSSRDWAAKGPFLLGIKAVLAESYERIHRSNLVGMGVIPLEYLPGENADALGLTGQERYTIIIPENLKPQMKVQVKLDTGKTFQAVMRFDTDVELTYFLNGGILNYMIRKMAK
Description: fluorescence quenching (intrinsic); 5 °C, no Fe; 20 mM HEPES pH 7.4, 100 mM KCl, 1 mM MgCl2; 50 nM IRP1, 0-200 nM RNA; 15 min; 25 °C (5-30 °C series); Fe2+ 50 uM anaerobic where stated.

Data set [2] deals with T1, Iron regulatory protein 1 (IRP1). Description: fluorescence quenching (intrinsic); 10 °C, no Fe; 20 mM HEPES pH 7.4, 100 mM KCl, 1 mM MgCl2; 50 nM IRP1, 0-200 nM RNA; 15 min; 25 °C (5-30 °C series); Fe2+ 50 uM anaerobic where stated.
Data set [3] has the same target. Description: fluorescence quenching (intrinsic); 15 °C, no Fe; 20 mM HEPES pH 7.4, 100 mM KCl, 1 mM MgCl2; 50 nM IRP1, 0-200 nM RNA; 15 min; 25 °C (5-30 °C series); Fe2+ 50 uM anaerobic where stated.
The target is the same in data set [4]. The data set is described as follows: fluorescence quenching (intrinsic); 20 °C, no Fe; 20 mM HEPES pH 7.4, 100 mM KCl, 1 mM MgCl2; 50 nM IRP1, 0-200 nM RNA; 15 min; 25 °C (5-30 °C series); Fe2+ 50 uM anaerobic where stated.
Data set [5] shares this target. The data set is described as follows: fluorescence quenching (intrinsic); 25 °C, no Fe; 20 mM HEPES pH 7.4, 100 mM KCl, 1 mM MgCl2; 50 nM IRP1, 0-200 nM RNA; 15 min; 25 °C (5-30 °C series); Fe2+ 50 uM anaerobic where stated.
For data set [6] the target is unchanged. The data set is described as follows: fluorescence quenching (intrinsic); 30 °C, no Fe; 20 mM HEPES pH 7.4, 100 mM KCl, 1 mM MgCl2; 50 nM IRP1, 0-200 nM RNA; 15 min; 25 °C (5-30 °C series); Fe2+ 50 uM anaerobic where stated.
The target is the same in data set [7]. The data set is described as follows: fluorescence quenching, Scatchard; 25 °C, no Fe (abstract gives 21.0); 20 mM HEPES pH 7.4, 100 mM KCl, 1 mM MgCl2; 50 nM IRP1, 0-200 nM RNA; 15 min; 25 °C (5-30 °C series); Fe2+ 50 uM anaerobic where stated.

B1: alpha-Syn IRE RNA (SNCA 5'-UTR) (structured_RNA)
RNA: ACUGGGAGUGGCCAUUCGACGACAGUGUGGUGUAAAGGAAUUCAUUAGCC
Consider B1, for which the Kd in data set [1] worked out at 13.5 ± 0.6 nM; in data set [2], 21.9 ± 0.8 nM; in data set [3], 27.8 ± 1.2 nM; in data set [4], 38.9 ± 1.5 nM; in data set [5], 47.6 ± 1.7 nM; in data set [6], 63.8 ± 3.2 nM. Besides, the Ka in data set [7] was 20.8 10^6 M-1.
